Source: IntAct's records for PubMed 11779505

B1: Mothers against decapentaplegic homolog 4 (Homo sapiens), Q13485 (parent)
chain: MDNMSITNTPTSNDACLSIVHSLMCHRQGGESETFAKRAIESLVKKLKEKKDELDSLITAITTNGAHPSKCVTIQRTLDGRLQVAGRKGFPHVIYARLWRWPDLHKNELKHVKYCQYAFDLKCDSVCVNPYHYERVVSPGIDLSGLTLQSNAPSSMMVKDEYVHDFEGQPSLSTEGHSIQTIQHPPSNRASTETYSTPALLAPSESNATSTANFPNIPVASTSQPASILGGSHSEGLLQIASGPQPGQQQNGFTGQPATYHHNSTTTWTGSRTAPYTPNLPHHQNGHLQHHPPMPPHPGHYWPVHNELAFQPPISNHPAPEYWCSIAYFEMDVQVGETFKVPSSCPIVTVDGYVDPSGGDRFCLGQLSNVHRTEAIERARLHIGKGVQLECKGEGDVWVRCLSDHAVFVQSYYLDREAGRAPGDAVHKIYPSAYIKVFDLRQCHRQMQQQAATAQAAAAAQAAAVAGNIPGPGSVGGIAPAISLSAAAGIGVDDLRRLCILRMSFVKGWGPDYPRQSIKETPCWIEIHLHRALQLLDEVLHTMPIADPQPLD

Variants of: B1
Details: with smad1_human SMAD1, Q15797
Chain of smad1_human SMAD1, Q15797 (Q15797 whole entry): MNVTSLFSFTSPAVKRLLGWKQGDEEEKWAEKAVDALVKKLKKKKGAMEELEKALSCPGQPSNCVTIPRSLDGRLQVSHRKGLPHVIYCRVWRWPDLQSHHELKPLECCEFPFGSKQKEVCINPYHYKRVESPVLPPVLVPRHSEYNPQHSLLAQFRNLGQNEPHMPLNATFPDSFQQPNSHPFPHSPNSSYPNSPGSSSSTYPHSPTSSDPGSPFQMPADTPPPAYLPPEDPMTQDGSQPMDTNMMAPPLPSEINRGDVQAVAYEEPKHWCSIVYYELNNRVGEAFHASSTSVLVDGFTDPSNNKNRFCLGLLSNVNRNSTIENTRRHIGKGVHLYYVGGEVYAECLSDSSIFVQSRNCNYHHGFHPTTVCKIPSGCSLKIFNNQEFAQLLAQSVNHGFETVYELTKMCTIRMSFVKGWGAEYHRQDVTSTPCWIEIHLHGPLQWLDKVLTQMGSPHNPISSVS

| effect of a mutation on the interaction | Variant |
| --- | --- |
| disrupting interaction strength | R515S |
| decreasing interaction strength | D537E |

Second part, the variant before the results:

| Variant | effect of a mutation on the interaction |
| --- | --- |
| K507S | disrupting interaction strength |
| D351H | disrupting interaction strength |
| V426S | decreasing interaction strength |
